This is an account of results in US20050028229A1 (published 2005).

Experiment [1] deals with T1, purified human α-hemoglobin (human, UniProt P69905 2-142, heme-bound; carboxy (CO) form in interaction studies, oxy form in stability studies).
T1 construct: Holo-protein with heme; also called CO-α-hemoglobin; carboxy (CO)-α-hemoglobin
The experiment in a line: method not stated; told as 'discussed previously'.

The target in experiment [2] is T2, purified human β-hemoglobin (human, UniProt P68871 2-147, heme-bound; carboxy (CO) form in interaction studies, oxy form in stability studies).
T2 construct: also called CO-β-hemoglobin; oxy-β-hemoglobin
Description: gel-filtration chromatography of equimolar mixtures.
Description: Duplicate strips were stained with benzidine to identify heme-containing proteins, and/or with Ponceau S to stain all proteins.

Experiment [3] concerns the target T1, purified human α-hemoglobin. The experiment in a line: gel filtration at various concentrations of AHSP and α-hemoglobin (data not shown). Background: SEC sorts molecules by how far they enter the pores of the column.

T1 sequence (P69905 2-142 limits assumed): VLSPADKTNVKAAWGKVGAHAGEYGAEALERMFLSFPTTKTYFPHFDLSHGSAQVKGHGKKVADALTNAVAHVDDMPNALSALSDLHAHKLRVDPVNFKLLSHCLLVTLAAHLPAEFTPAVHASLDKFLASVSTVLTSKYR
T2 sequence (P68871 2-147 limits assumed): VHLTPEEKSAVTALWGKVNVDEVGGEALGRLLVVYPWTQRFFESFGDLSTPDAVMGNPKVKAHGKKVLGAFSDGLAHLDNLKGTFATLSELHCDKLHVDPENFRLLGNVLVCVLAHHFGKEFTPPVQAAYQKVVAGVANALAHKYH

B1: recombinant human AHSP (Alpha Hemoglobin Stabilizing Protein) (other, UniProt Q9NZD4 1-102, looked up)
chain: MALLKANKDLISAGLKEFSVLLNQQVFNDPLVSEEDMVTVVEDWMNFYINYYRQQVTGEPQERDKALQELRQELNTLANPFLAKYRDFLKSHELPSHPPPSS
notes: species not restated there; also called EDRF; Erythroid Differentiation Related Factor
Turning to B1, the Kd (in general, the free concentration of one partner at which half of the binding sites on the other are occupied at equilibrium, for simple one-to-one binding) in experiment [1] is about 100 nM; in experiment [3], at most 500 nM. Also, in experiment [2], the binding result is on record as “no binding”.
